Source: patent publication US20190284242A1 (University of Washington, published 2019)

B1: I32-06A (designed binder)
chain: MTDYIRDGSAIKALSFAIILAEADLRHIPQDLQRLAVRVIHACGMVDVANDLAFSEGAGKAGRNALLAGAPILCDARMVAEGITRSRLPADNRVIYTLSDPSVPELAKKIGNTRSAAALDLWLPHIEGSIVAIGNAPTALFRLFELLDAGAPKPALIIGMPVGFVGAAESKDELAANSRGVPYVIVRGRRGGSAMTAAAVNALASERE
notes: also called dimer component of I32-06
B2: I52-33A (designed binder)
chain: MAVKGLGEVDQKYDGSKLRIGILHARWNRKIILALVAGAVLRLLEFGVKAENIIIETVPGSFELPYGSKLFVEKQKRLGKPLDAIIPIGVLIKGSTMHFEYICDSTTHQLMKLNFELGIPVIFGVLTCLTDEQAEARAGLIEGKMHNHGEDWGAAAVEMATKFN
notes: also called pentamer component of I52-33

Legend:
I32-06B = biological target: T1, I32-06B; experiment: negative stain electron microscopy class averages of the assembled nanostructure
T1 construct: also called trimer component of I32-06

I52-33B = biological target: T2, I52-33B; experiment: size exclusion chromatography (Superose 6 10/300) of co-expressed, purified pair
T2 construct: also called dimer component of I52-33
T2 chain: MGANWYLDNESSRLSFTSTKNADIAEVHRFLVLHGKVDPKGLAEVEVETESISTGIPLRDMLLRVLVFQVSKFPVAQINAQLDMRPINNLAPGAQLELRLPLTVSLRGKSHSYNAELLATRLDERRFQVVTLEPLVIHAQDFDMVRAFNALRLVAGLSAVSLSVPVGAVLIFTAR

T1 sequence (chain, as listed by the source): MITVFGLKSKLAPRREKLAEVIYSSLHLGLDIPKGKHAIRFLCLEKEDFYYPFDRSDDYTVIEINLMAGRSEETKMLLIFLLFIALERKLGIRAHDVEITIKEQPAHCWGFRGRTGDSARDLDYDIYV

Binder | binding result (I32-06B) | binding result (I52-33B)
B1 | binds | 
B2 |  | binds
